Target: T1, OxyR (Pseudomonas aeruginosa (PAO1?)) (UniProt Q9HTL4)
T1 sequence: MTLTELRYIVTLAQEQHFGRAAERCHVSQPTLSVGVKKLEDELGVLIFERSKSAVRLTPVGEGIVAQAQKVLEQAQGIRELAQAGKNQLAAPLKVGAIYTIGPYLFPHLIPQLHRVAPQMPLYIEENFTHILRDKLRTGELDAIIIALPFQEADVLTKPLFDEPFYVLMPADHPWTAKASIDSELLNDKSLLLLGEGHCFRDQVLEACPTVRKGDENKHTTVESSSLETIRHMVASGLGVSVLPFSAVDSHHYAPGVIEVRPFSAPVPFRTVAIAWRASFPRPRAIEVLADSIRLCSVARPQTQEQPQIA
Experiment: DNase I footprinting
Conditions: Footprint: 20 mM Tris-HCl pH 7.0, 50 mM KCl, 1 mM EDTA, 5% glycerol, 50 ug/ml BSA, 5 ug/ml calf thymus DNA, 0.5 ug/ml poly(dI-dC), 25 C, 15 min; EMSA: Roche …

CAGGCGCTCGGCGGCGCGGGTGAAACTGCCTTCGCGGGCGACGGCGTCGAAGGCGCGGAGCTGGAAGAGATTCATGGTATCGGCCTGGCTTATGGCTGGCATCGGAACAAACAATTTGAACGATAGTAGCGCGGCGCTCACCTTATGTCTCCAGGCTTCCCTGGAACGCCGGCGCGGAACGACCGCCCGGACCGCGAAG (double strand) [phnW promoter 199-bp fragment (footprint)]
binding: binds

From publication PMC5720770
